The results in this text go back to patent publication US20190292270A1 (UNIVERSITY OF TOKYO, published 2019).

The target in this assay is T1, mouse TLR9 (mouse, UniProt Q9EQU3 26-1032).
T1 construct: Endogenous TLR9 of mouse spleen cDCs (staining) and of BM-cDC lysate (immunoprecipitation); also called endogenous TLR9
T1 sequence: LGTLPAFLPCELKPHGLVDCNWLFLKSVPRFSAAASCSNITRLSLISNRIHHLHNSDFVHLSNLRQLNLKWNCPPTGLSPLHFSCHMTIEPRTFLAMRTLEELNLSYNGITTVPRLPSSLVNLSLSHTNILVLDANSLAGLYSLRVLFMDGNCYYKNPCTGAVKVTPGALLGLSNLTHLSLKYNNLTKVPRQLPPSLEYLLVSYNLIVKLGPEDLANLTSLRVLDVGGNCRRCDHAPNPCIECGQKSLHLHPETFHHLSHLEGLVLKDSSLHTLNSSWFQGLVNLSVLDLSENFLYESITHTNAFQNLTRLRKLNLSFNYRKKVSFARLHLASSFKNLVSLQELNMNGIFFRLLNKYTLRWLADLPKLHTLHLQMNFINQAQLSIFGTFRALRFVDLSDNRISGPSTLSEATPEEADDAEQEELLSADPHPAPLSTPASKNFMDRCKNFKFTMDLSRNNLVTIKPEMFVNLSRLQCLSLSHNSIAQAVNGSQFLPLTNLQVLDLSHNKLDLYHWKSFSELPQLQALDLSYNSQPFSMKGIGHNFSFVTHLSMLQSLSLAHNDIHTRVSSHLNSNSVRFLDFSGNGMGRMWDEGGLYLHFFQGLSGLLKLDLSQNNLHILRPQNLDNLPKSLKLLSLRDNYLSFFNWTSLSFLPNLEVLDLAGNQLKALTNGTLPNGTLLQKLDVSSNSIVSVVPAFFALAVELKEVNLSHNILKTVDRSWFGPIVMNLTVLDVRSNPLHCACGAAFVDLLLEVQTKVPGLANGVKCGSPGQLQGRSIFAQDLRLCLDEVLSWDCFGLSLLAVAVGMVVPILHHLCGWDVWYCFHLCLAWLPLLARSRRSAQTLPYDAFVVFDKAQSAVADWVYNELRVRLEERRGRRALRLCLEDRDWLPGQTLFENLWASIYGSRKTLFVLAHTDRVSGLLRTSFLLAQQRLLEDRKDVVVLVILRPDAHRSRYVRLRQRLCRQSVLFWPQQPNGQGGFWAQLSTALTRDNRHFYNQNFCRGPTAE
Nature of the assay: immunoprecipitation from BM-cDC lysate, Western blot; also staining of spleen cDCs. The procedure: The protein expression of TLR9 was analyzed by Western blot. BM-cDCs were washed twice with 1×PBS and recovered. The recovered cells were lysed for 30 minutes in an ice-cold buffer for lysis (1% Triton X 100, 20 mM Tris-HCl (pH 7.4), 150 mM NaCl, 1 mM CaCl₂, 1 mM MgCl₂, 10% glycerol, 1 mM DTT and Complete protease Inhibitor Cocktail (F. Hoffmann-La Roche, Ltd.)) and centrifuged at a high speed, followed by the recovery of the supernatant of the cell lysate.
The recovered cell lysate was added to N-hydroxy succinimide-activated Sepharose 4FF beads bound with the anti-TLR9 monoclonal antibody (NaR9), and the mixture was stirred at 4° C. for 2 hours. TLR9 was immunoprecipitated by this step. The beads thus stirred were washed three times with an ice-cold buffer for washing (0.1% Triton X 100, 20 mM Tris/HCl (pH 7.4), 150 mM NaCl, 1 mM CaCl₂), 1 mM MgCl2, 0.1% glycerol, and 1 mM DTT). To the washed beads, an SDS sample buffer (125 mM Tris/HCl [pH 6.8], 20% glycerol, 4% SDS, 10% 2-ME, and 0.005% bromophenol blue) was added, and the mixture was heated at 96° C. for 5 minutes for protein denaturation treatment. The sample thus prepared was subjected to polyacrylamide electrophoresis, and the protein was transferred to a PVDF membrane and Western-blotted. […]

B1: anti-mouse TLR9 monoclonal antibody NaR9 (antibody, IgG2a, V domains shown)
VH: QVHLQQSGPDLVKPGASVQMSCKTSDYTFTNYYLHWVRQRPGQGLEWIGWIYPGDGSTKYNDQFRGRTTLTADKSSSTAYMFLSSLTSEDSAIYFCAKSWDYFDYWGQGTTLTVSS
VL: DIQMTQSPSSLSASLGGKVTITCKASQDIDNYIAWYQHKPGKGPRLLIHYASTLQPGIPSRFSGSGSGRDYSLSISNLEPEDIATYYCLQYDDLYTFGGGTKLEIK
notes: Mouse hybridoma antibody, subclass IgG2a/kappa, purified from ascitic fluid; They may therefore cover only the variable regions, possibly with a leader; also called NaR9 antibody; anti-TLR9 monoclonal antibody (NaR9)
With B1, the binding result was “binds”.
